Test results reported in article PMC6449425, “Sterol Regulatory Element-Binding Protein (Sre1) Promotes the Synthesis of Carotenoids and Sterols in Xanthophyllomyces dendrorhous”.

T1: Sre1 bHLH DNA-binding domain (UniProt A0A5B8KSW3 349-477)
T1 sequence: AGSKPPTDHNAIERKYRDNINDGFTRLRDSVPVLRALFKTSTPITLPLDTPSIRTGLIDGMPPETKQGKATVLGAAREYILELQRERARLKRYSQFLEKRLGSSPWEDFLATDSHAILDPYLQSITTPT

B1: SRE1*+SRE2 (probe B, by order) (dsDNA)
DNA 1: CCATCGTCACTCTTTATTCTTTTTCCGTTGGGGCTATGTAACACCACACGTGACTCCACT
DNA 2: AGTGGAGTCACGTGTGGTGTTACATAGCCCCAACGGAAAAAGAATAAAGAGTGACGATGG
B2: SRE1+SRE2* (probe C, by order) (dsDNA)
DNA 1: CCATCGTCACTCTCGTCTCCTGACCCGTTGGGGCTATAATTCATTTTACGTGACTCCACT
DNA 2: AGTGGAGTCACGTAAAATGAATTATAGCCCCAACGGGTCAGGAGACGAGAGTGACGATGG
B3: probe A (HMGS SRE1+SRE2) (dsDNA)
DNA 1: CCATCGTCACTCTCGTCTCCTGACCCGTTGGGGCTATGTAACACCACACGTGACTCCACT
DNA 2: AGTGGAGTCACGTGTGGTGTTACATAGCCCCAACGGGTCAGGAGACGAGAGTGACGATGG
B4: probe D (SRE1*+SRE2*) (dsDNA)
DNA 1: CCATCGTCACTCTTTATTCTTTTTCCGTTGGGGCTATAATTCATTTTACGTGACTCCACT
DNA 2: AGTGGAGTCACGTAAAATGAATTATAGCCCCAACGGAAAAAGAATAAAGAGTGACGATGG

Legend:
[1] = biological target: T1, Sre1 bHLH DNA-binding domain; experiment: EMSA; 1.7 nM protein, 0.5 nM probe; single (fast) shifted band; 50 mM Hepes-KOH pH 7.5, 100 mM KCl, 5 mM MgCl2, 1 mM DTT, 20% glycerol, 0.8 mg/ml BSA, 0.3 mg/ml poly(dI-dC), 22°C 30 min; gel 0.5x TBE 4°C; details: protein: recombinant; tags: His-tag (pET-TEV, TEV site); chain copies: 2; label: 3' biotin; blunt
[2] = biological target: T1, Sre1 bHLH DNA-binding domain; experiment: EMSA; 1.7 nM protein, 0.5 nM probe; two shifted bands; 50 mM Hepes-KOH pH 7.5, 100 mM KCl, 5 mM MgCl2, 1 mM DTT, 20% glycerol, 0.8 mg/ml BSA, 0.3 mg/ml poly(dI-dC), 22°C 30 min; gel 0.5x TBE 4°C; details: protein: recombinant; tags: His-tag (pET-TEV, TEV site); chain copies: 2; blunt
[3] = biological target: T1, Sre1 bHLH DNA-binding domain; experiment: EMSA; 1.7 nM protein, 0.5 nM probe; no shift; 50 mM Hepes-KOH pH 7.5, 100 mM KCl, 5 mM MgCl2, 1 mM DTT, 20% glycerol, 0.8 mg/ml BSA, 0.3 mg/ml poly(dI-dC), 22°C 30 min; gel 0.5x TBE 4°C; details: protein: recombinant; tags: His-tag (pET-TEV, TEV site); chain copies: 2; blunt

Row | Binder | binding result [1] | further results
1 | B1 | binds | –
2 | B2 | binds | –
3 | B3 | – | binding result [2]: binds
4 | B4 | – | binding result [3]: no binding
